Laboratory results reported in article PMC6377682 (2019).

B1: human PP1β^6-327 (enzyme)
chain: LNVDSLITRLLEVRGCRPGKIVQMTEAEVRGLCIKSREIFLSQPILLELEAPLKICGDIHGQYTDLLRLFEYGGFPPEANYLFLGDYVDRGKQSLETICLLLAYKIKYPENFFLLRGNHECASINRIYGFYDECKRRFNIKLWKTFTDCFNCLPIAAIVDEKIFCCHGGLSPDLQSMEQIRRIMRPTDVPDTGLLCDLLWSDPDKDVQGWGENDRGVSFTFGADVVSKFLNRHDLDLICRAHQVVEDGYEFFAKRQLVTLFSAPNYCGEFDNAGGMMSVDETLMCSFQILKPSEKKAKYQYGGLNSGRPVTPPRTANPPKKR
B6: human ASPP2^920-1120 (domain or fragment)
chain: MRVKFNPLALLLDSSLEGEFDLVQRIIYEVDDPSLPNDEGITALHNAVCAGHTEIVKFLVQFGVNVNAADSDGWTPLHCAASCNNVQVCKFLVESGAAVFAMTYSDMQTAADKCEEMEEGYTQCSQFLYGVQEKMGIMNKGVIYALWDYEPQNDDELPMKEGDCMTIIHREDEDEIEWWWARLNDKEGYVPRNLLGLYPRI

How the values were obtained:
human ASPP2^920-1120 = molecular target: B6; assay: ITC
ASPP1^K1052E/S1055D = molecular target: T1, ASPP1^K1052E/S1055D (human, UniProt Q96KQ4 882-1090, K1052E | S1055D); assay: BLI
T1 sequence: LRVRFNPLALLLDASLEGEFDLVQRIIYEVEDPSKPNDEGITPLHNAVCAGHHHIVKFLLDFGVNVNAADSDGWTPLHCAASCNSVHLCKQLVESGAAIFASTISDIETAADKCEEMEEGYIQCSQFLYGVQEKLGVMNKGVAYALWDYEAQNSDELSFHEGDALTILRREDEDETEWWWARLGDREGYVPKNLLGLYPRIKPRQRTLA

ASPP2^E1090K/D1093S = molecular target: T2, ASPP2^E1090K/D1093S (human, UniProt Q13625 920-1120, E1090K | D1093S); assay: BLI
T2 sequence: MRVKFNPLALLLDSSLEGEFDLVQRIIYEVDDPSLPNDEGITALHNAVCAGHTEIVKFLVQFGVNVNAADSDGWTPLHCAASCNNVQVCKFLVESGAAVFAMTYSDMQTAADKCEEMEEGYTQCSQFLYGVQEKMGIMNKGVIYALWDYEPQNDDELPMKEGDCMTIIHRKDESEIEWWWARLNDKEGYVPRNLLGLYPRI

ASPP2^D1093S = molecular target: T3, ASPP2^D1093S (human, UniProt Q13625 920-1120, D1093S); assay: BLI
T3 sequence: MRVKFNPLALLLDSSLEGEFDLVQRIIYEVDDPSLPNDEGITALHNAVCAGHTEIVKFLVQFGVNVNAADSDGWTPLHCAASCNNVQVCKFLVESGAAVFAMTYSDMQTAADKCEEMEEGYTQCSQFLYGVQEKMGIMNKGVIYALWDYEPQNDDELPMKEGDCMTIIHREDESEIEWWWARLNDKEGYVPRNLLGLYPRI

human PP1α^7-330 = human PP1α^7-330 (human, UniProt P62136 7-330); assay: BLI
human PP1γ1^7-323 = human PP1γ1^7-323 (human, UniProt P36873 7-323); assay: BLI
human PP1β^6-327 = molecular target: B1; assay: BLI
ASPP2^D1091G/E1092P = molecular target: T4, ASPP2^D1091G/E1092P (human, UniProt Q13625 920-1120, D1091G | E1092P); assay: ITC
T4 sequence: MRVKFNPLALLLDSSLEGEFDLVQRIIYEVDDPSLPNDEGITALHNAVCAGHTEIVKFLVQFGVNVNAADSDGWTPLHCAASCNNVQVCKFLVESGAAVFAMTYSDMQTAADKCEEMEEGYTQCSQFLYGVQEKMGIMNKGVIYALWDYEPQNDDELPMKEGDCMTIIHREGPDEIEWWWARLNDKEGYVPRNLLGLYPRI

Binder: KNKGKYGQFSGLNPGGRPITPPRNSAKAKA [PP1α^301-330 K330A peptide]
- Kd (human ASPP2^920-1120): 326 nM

Binder: KNKGKYGQFSGLNPGGRPITPPRNSAAAKK [PP1α^301-330 K327A peptide]
- Kd (human ASPP2^920-1120): 520 nM

Binder: B1
- Kd (ASPP1^K1052E/S1055D): 84.4 nM
- Kd (ASPP2^E1090K/D1093S): 178 nM
- Kd (ASPP2^D1093S): 136 nM

B2: PP1β^297-327 chimera with the PP1α C-terminal residues NSAKAKK (peptide)
chain: PSEKKAKYQYGGLNSGRPVTPPRNSAKAKK
modifications: synthetic peptide, termini not stated; the end of the PPII motif (RPVTPPR) is taken as Arg319 by alignment with PP1α 317-323
- Kd (human ASPP2^920-1120): 200 nM

Binder: KPAEKKKPNATRPVTPPRVASGLNPSIQ [PP1γ2^297-324 C-tail peptide]
- Kd (human ASPP2^920-1120): 2150 nM

B3: human iASPP^621-828 (domain or fragment)
chain: RRARLNPLVLLLDAALTGELEVVQQAVKEMNDPSQPNEEGITALHNAICGANYSIVDFLITAGANVNSPDSHGWTPLHCAASCNDTVICMALVQHGAAIFATTLSDGATAFEKCDPYREGYADCATYLADVEQSMGLMNSGAVYALWDYSAEFGDELSFREGESVTVLRRDGPEETDWWWAALHGQEGYVPRNYFGLFPRVKPQRSKV
- Kd (human PP1α^7-330): 2.4 nM
- Kd (human PP1γ1^7-323): 4.9 nM

Binder: PSEKKAKYQYGGLNSGRPVTPPRTANPPKKR [PP1β^297-327 C-tail peptide]
- Kd (human ASPP2^920-1120): 965 nM

B4: PP1γ1^298-323 chimera with the PP1α C-terminal residues NSAKAKK (peptide)
chain: PAEKKKPNATRPVTPPRNSAKAKK
modifications: synthetic peptide, termini not stated; the end of the PPII motif (RPVTPPR) is taken as Arg314 by alignment with PP1α 317-323
- Kd (human ASPP2^920-1120): 326 nM

B5: PP1γ2^297-324 chimera with the PP1α C-terminal residues NSAKAKK (peptide)
chain: KPAEKKKPNATRPVTPPRNSAKAKK
modifications: synthetic peptide, termini not stated; γ2 is identical to γ1 through the PPII motif (end taken as Arg314 by alignment), so the canonical entry is used
- Kd (human ASPP2^920-1120): 326 nM

Binder: PAEKKKPNATRPVTPPRGMITKQAKK [PP1γ1^298-323 C-tail peptide]
- Kd (human ASPP2^920-1120): 690 nM

Binder: KNKGKYGQFSGLNPGGRPITPPRNSAKAAK [PP1α^301-330 K329A peptide]
- Kd (human ASPP2^920-1120): 342 nM

Binder: B6
- Kd (human PP1γ1^7-323): 195 nM
- Kd (human PP1β^6-327): 177 nM

B7: human ASPP1^882-1090 (domain or fragment)
chain: LRVRFNPLALLLDASLEGEFDLVQRIIYEVEDPSKPNDEGITPLHNAVCAGHHHIVKFLLDFGVNVNAADSDGWTPLHCAASCNSVHLCKQLVESGAAIFASTISDIETAADKCEEMEEGYIQCSQFLYGVQEKLGVMNKGVAYALWDYEAQNSDELSFHEGDALTILRRKDESETEWWWARLGDREGYVPKNLLGLYPRIKPRQRTLA
- Kd (human PP1α^7-330): 59 nM
- Kd (human PP1γ1^7-323): 60.6 nM
- Kd (human PP1β^6-327): 66.5 nM

Binder: KNKGKYGQFSGLNPGGRPITPPRNSAKAKK [PP1α^301-330 C-tail peptide]
- Kd (ASPP2^D1091G/E1092P): 172 nM
